Test results from patent US20180134794A1 (Regeneron, published 2018).

B1: H4H14639D-Maytansinoid A (bispecific antibody, human IgG4, V domains shown)
VH 1: EVQLVESGGGLVQPGTSLRLSCAASGFTFDDYAMHWVRQAPGKGLEWVSGITWNSYNIDYADSVKGRFTISRDNAKNSLYLQMNSLRAEDTALYYCAKDDDYSNYVYFDYWGQGTLVTVSS
VH 2: EVQLVESGGGLVQPGGSLRLSCAASGFIVTTNYMTWLRQAPGKGLEWVSLIYSSGHTYYADSVKGRFTISRHNSKNTLYLQMDSLRAEDTAVYYCASAFAADVFDIWGQGTMVTVSS
VL: not shown
modifications: conjugated with SMCC-DM1 diastereomer (Maytansinoid A); residues and chain of attachment not stated
B2: H4H13299P2 (antibody, human IgG4, V domains shown)
VH: EVQLVESGGGLVQPGGSLRLSCAASGFIFSNYEMNWVRQAPGKGLEWISYITSSGNMKYYADSVKGRFTISRDNDKNSLYLQMSSLRVEDTAVYYCVRGGRFLEWLTYYVMVVWGQGTTVTVSS
VL: not shown
B3: H4H13290P2 (antibody, human IgG4, V domains shown)
VH: QVQLQESGPGLVKPSETLSLTCTVSGDSISSYYWTWIRQPPGKGLEWIGYIFYRGGTTYNPSLKSRVTISVDTSKNQFSLKLRSVTAADTAVYYCARGDDLLVVTSVYWYIDLWGRGTLVTVSS
VL: not shown
B4: H4H13309P2 (antibody, human IgG4, V domains shown)
VH: QVQLVQSGTEVKEPGASVKVSCKASGYSFTTYGISWLRQAPGQGLEWMGWISTYNGDTISAQMLQDRVTLTADTSTRTAYMELRSLRSDDTAVYYCARGHEYDSLVYSYWGQGTLVTVSS
VL: not shown
B5: H4H13331P2 (antibody, human IgG4, V domains shown)
VH: QVQLQESGPGLVKSSETLSLTCTVSGGSIRNFYWSWLRQPPGKGLEWIGHINYNGGTDYNPSLKSRVTISVDTSKNQFSLNLNSVTAADTAVYYCARQRFYGMDVWGPGTTVTVSS
VL: not shown
B6: H4H14634D (bispecific antibody, human IgG4, V domains shown)
VH 1: B3 VH
VH 2: B1 VH 2
VL: not shown
B7: H4H14640D (bispecific antibody, human IgG4, V domains shown)
VH 1: B4 VH
VH 2: B1 VH 2
VL: not shown
B8: H4H13311P2 (antibody, human IgG4, V domains shown)
VH: QVQLVESGGGVVQPGRSLRLSCAASGFTFSSYAMHWVRQAPGRGLEWVAVIWHDGDVEYYVDSVKDRFTISRDNSKSTLYLQMNSLRAEDTALYYCAREAWDLLRPFDYWGQGTLVTVSS
VL: not shown
B9: H4H13318P2 (antibody, human IgG4, V domains shown)
VH: QVQLVESGGGVVQPGRSLRLSCVASGFSFSNFGMHWVRQAPGKGLEWVAIIWYDGSNKYYSDSVKGRFTISRDNSKNTLYLQMNSLRVDDTAVYYCARFDRWKFDAFDIWGQGTMVTVSS
VL: not shown
B10: H4H13319P2 (antibody, human IgG4, V domains shown)
VH: QVQLVESGGGVVQPGRSLRLSCAASGFTFSSFAMHWVRQAPGKGLEWVAVIWYDGSNDYYAASVKGRFTISRDNSKNTLYLEMNRLRAEDTAVYHCARDNWNYWGGMDVWGQGTTVTVSS
VL: not shown
B11: H4H13300P2 (antibody, human IgG4, V domains shown)
VH: QVQLVESGGGVVQPGRSLRLSCAVSGFTFSSYGMHWVRQAPGKGLEWVANIWYDGTNDYYPYSVKGRFTISRDNSQNTLYLQMNSLRAEDTAVYYCAREDFINYRSFDYWGQGTLVTVSS
VL: not shown

Molecular target: T1, human MET (c-Met, hepatocyte growth factor receptor), endogenous on human cell lines (human, UniProt P08581 25-1390)
Experiment: cell-based or functional assay
Wherever % Inhibition (HEK293/SRE-Luc Blocking Activity, 1 h mAb pre-bind) is given: test concentration or dose not given here.

T1 sequence (P08581 25-1390 limits assumed, form in doubt): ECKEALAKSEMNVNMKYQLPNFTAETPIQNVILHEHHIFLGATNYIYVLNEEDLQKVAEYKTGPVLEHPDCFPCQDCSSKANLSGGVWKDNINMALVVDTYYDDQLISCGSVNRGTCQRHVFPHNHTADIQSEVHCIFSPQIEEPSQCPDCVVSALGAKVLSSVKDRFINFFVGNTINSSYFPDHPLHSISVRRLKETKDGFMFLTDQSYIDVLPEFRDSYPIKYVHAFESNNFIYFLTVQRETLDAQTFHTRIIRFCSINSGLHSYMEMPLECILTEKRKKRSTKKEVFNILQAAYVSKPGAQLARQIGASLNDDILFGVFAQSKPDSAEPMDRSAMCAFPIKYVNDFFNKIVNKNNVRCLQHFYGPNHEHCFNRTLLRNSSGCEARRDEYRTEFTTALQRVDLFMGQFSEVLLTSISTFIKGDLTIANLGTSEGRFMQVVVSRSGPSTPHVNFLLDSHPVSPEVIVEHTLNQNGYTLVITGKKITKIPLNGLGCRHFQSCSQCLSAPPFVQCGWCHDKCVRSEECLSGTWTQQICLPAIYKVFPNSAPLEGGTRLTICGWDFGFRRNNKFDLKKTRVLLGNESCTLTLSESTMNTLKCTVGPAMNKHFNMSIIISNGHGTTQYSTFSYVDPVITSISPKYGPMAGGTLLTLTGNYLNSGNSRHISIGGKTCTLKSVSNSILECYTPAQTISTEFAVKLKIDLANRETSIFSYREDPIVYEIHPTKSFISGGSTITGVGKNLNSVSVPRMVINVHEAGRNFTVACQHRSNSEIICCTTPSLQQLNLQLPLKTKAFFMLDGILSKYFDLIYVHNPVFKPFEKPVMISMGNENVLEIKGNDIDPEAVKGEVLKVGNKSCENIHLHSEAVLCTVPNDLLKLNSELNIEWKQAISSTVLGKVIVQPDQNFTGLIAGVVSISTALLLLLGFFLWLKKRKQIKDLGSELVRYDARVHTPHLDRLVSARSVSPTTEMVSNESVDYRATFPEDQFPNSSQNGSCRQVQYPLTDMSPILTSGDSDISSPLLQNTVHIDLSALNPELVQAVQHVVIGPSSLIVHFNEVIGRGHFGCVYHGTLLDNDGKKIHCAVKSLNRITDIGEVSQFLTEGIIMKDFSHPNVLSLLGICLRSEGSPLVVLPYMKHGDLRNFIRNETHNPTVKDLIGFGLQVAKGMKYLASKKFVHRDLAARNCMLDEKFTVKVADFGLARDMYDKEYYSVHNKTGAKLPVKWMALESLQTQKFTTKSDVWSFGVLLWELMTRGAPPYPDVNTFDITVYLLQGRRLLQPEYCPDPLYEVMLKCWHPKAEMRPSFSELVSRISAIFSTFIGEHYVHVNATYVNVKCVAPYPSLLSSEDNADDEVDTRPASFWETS

Binder | IC50 (nM), 3-day in vitro cytotoxicity assay, MDA-MB-231 cells (low MET) | IC50 (nM), 3-day in vitro cytotoxicity assay, SNU-5 cells | IC50 (nM), 3-day in vitro cytotoxicity assay, U87MG cells (low MET)
B1 | > 100 nM | 0.4 nM | 100 nM

Molecular target: T1, human MET (c-Met, hepatocyte growth …)
Experiment: cell-based or functional assay
Remark: another data set of the same source

Binder | % Inhibition (HEK293/SRE-Luc Blocking Activity, 1 h mAb pre-bind) | EC50 (Ligand (HGF)-Independent HEK293/SRE-Luc Activation) | Fold Response (Ligand (HGF)-Independent HEK293/SRE-Luc Activation) | IC50 (HEK293/SRE-Luc Blocking Activity, 1 h mAb pre-bind)
B2 | 51% | 0.0037 nM | 14.4 fold | 
B3 | 56% | < 0.002 nM | 9.8 fold | < 0.002 nM
B4 | 77% | 0.39 nM | 9.2 fold | 0.2 nM
B5 | 75% | 0.0023 nM | 7.1 fold | < 0.01 nM
B6 | 85% | 0.09 nM | 3.4 fold | 0.0097 nM
B7 | 89% | 6.8 nM | 2.5 fold | 0.52 nM
B8 | 62% | 0.3 nM | 5.2 fold | 0.035 nM
B9 | 77% |  | 3.1 fold | 0.1 nM
B10 | 67% | 0.18 nM | 4.8 fold | 0.052 nM
B11 | 69% | 0.48 nM | 2.8 fold | 0.12 nM
